Reference: patent publication US20250276077A1 (IMMUNOME, published 2025)
Positions count from the first letter of the chain named. Each block holds one binder with its values, some of them ahead of it.

Experiments:
[1] = target: T1, Human EphA2 (ephrin receptor A2) on cells (human, UniProt P29317 25-976); experiment: cell-based or functional assay
[2] = target: T1, Human EphA2 (ephrin receptor A2) on …; experiment: cell-based or functional assay; remark: listed apart in the source
[3] = target: T1, Human EphA2 (ephrin receptor A2) on …; experiment: cell-based or functional assay; remark: listed apart in the source
hEphA2-clv385-534-Fc = target: T2, hEphA2-clv385-534-Fc (human, UniProt P29317 385-534); experiment: SPR Biacore, 25 C; hEphA2-Fc fusion captured by anti-human Fc, Fab analyte
T2 construct: Recombinant fragment representing a cleavage form; not shown: human Fc, C-terminal to the EphA2 part
Experimental: (§1) The hEphA2-Fc fusions were captured with an anti-human Fe immobilized to a CM5 chip.
(§2) Biacore® assays were conducted at 25° C. using HBS-EP+ buffer (0.01 M HEPES pH 7.4, 0.15 M NaCl, 3 mM EDTA, 0.005% v/v Surfactant P20). Data was double-reference subtracted and data was analyzed using 1:1 Langmuir binding model and steady-state model in Biacore Evaluation software.
(§3) Binding to hEphA2-ECD-Fc tested using 100, 300, and 900 nM analyte.

hEphA2-clv432-534-Fc = target: T3, hEphA2-clv432-534-Fc (human, UniProt P29317 432-534); experiment: as above
T3 construct: Recombinant fragment representing a cleavage form; not shown: human Fc, C-terminal to the EphA2 part
Experimental: as §1, §2, §3

hEphA2-clv395-534-Fc = target: T4, hEphA2-clv395-534-Fc (human, UniProt P29317 395-534); experiment: as above
T4 construct: Recombinant fragment representing a cleavage form; not shown: human Fc, C-terminal to the EphA2 part
Experimental: as §1, §2, §3

[4] = target: T5, hEphA2-FN12-(327-534) - Fc (human, UniProt P29317 327-534); experiment: as above
T5 construct: also called FN1-FN2 domains Fc fusion; not shown: human Fc, C-terminal to the EphA2 part
Experimental: as §1, §2, §3

hEphA2-clv435-534-Fc = target: T6, hEphA2-clv435-534-Fc (human, UniProt P29317 435-534); experiment: as above
T6 construct: Recombinant fragment representing a cleavage form; not shown: human Fc, C-terminal to the EphA2 part
Experimental: as §1, §2, §3

[5] = target: T7, hEphA2-FN2-(437-534) - Fc (human, UniProt P29317 437-534); experiment: as above
T7 construct: also called FN2 domain Fc fusion; not shown: human Fc, C-terminal to the EphA2 part
Experimental: as §1, §2, §3

Human EphA2 [6] = target: T8, Human EphA2 (human, UniProt P29317 24-976); experiment: IHC/IF on frozen human tumor tissue: UCEC-papillary
T8 construct: Endogenous EphA2 in fresh frozen human tumor tissue sections, not a recombinant protein; also called ephrin receptor A2; hEphA2

Human EphA2 [7] = target: T8, Human EphA2; experiment: IHC/IF on frozen human tumor tissue: URO
Human EphA2 [8] = target: T8, Human EphA2; experiment: IHC/IF on frozen human tumor tissue: NSCLC-SQ
Human EphA2 [9] = target: T8, Human EphA2; experiment: IHC/IF on frozen human tumor tissue: CRC
Human EphA2 [10] = target: T8, Human EphA2; experiment: IHC/IF on frozen human tumor tissue: NSCLC-Adeno
Human EphA2 [11] = target: T8, Human EphA2; experiment: IHC/IF on frozen human tumor tissue: MELA
Human EphA2 [12] = target: T8, Human EphA2; experiment: IHC/IF on frozen human tumor tissue: STS
Human EphA2 [13] = target: T8, Human EphA2; experiment: IHC/IF on frozen human tumor tissue: TNBC
Human EphA2 [14] = target: T8, Human EphA2; experiment: IHC/IF on frozen human tumor tissue: PROC
Human EphA2 [15] = target: T8, Human EphA2; experiment: IHC/IF on frozen human tumor tissue: Her2+ BRC
Human EphA2 [16] = target: T8, Human EphA2; experiment: IHC/IF on frozen human tumor tissue: UCEC-endometrioid
Human EphA2 [17] = target: T8, Human EphA2; experiment: IHC/IF on frozen human tumor tissue: ESO
Human EphA2 [18] = target: T8, Human EphA2; experiment: IHC/IF on frozen human tumor tissue: HNC
Human EphA2 [19] = target: T8, Human EphA2; experiment: IHC/IF on frozen human tumor tissue: UCEC-clear cell
Human EphA2 [20] = target: T8, Human EphA2; experiment: IHC/IF on frozen human tumor tissue: ANC
Human EphA2 [21] = target: T8, Human EphA2; experiment: IHC/IF on frozen human tumor tissue: GAC
Human EphA2 [22] = target: T8, Human EphA2; experiment: IHC/IF on frozen human tumor tissue: RCC-clear cell
Human EphA2 [23] = target: T8, Human EphA2; experiment: IHC/IF on frozen human tumor tissue: PANC
Human EphA2 [24] = target: T8, Human EphA2; experiment: IHC/IF on frozen human tumor tissue: OVA
Human EphA2 [25] = target: T8, Human EphA2; experiment: IHC/IF on frozen human tumor tissue: ER+ BRC
Human EphA2 [26] = target: T8, Human EphA2; experiment: IHC/IF on frozen human tumor tissue: RCC-papillary
[27] = target: T9, C-terminally His-tagged hEphA2-FN2 (Thr437-Asn534+His tag) (human, UniProt P29317 437-534); experiment: SPR Biacore T200, 25 C; mIgG2a as immobilized ligand, hEphA2-FN2-His analyte
T9 construct: also called FN2 domain of hEphA2
Experimental: Binding of EphA2 antibodies to the FN2 domain of hEphA2 was measured using the Biacore® T200 SPR system. Biacore® assays were conducted at 25° C. using HBS-EP+ buffer (0.01 M HEPES pH 7.4, 0.15 M NaCl, 3 mM EDTA, 0.005% v/v Surfactant P20) using the FN2 domain as the analyte with the antibodies in mIgG2a format as the immobilized ligand. Data was analyzed using 1:1 Langmuir binding model and steady-state model in Biacore Evaluation software.
C-terminally His-tagged human EphA2 FN2 domain (Thr437-Asn534+His tag) was used as the analyte. The analyte was associated for 120 seconds and dissociated for 100 seconds or 300 seconds at 30 μL/min.

[28] = target: T9, C-terminally His-tagged hEphA2-FN2 …; experiment: SPR Biacore T200, 25 C; mIgG2a captured by anti-mouse Fc, hEphA2-FN2-His analyte; steady-state monovalent KD
Experimental: Binding of antibodies to the FN2 domain of hEphA2 was measured using the Biacore® T200 SPR system at 25° C. using HBS-EP+ buffer (0.01 M HEPES pH 7.4, 0.15 M NaCl, 3 mM EDTA, 0.005% v/v Surfactant P20). Antibodies in mIgG2a format were captured at levels between 475-715 RU via an anti-mouse Fc antibody immobilized to a CM5 chip. Binding was assessed using a titration of C-terminally His-tagged hEphA2-FN2 (Thr437-Asn534+His tag) associated for 30 s or 75 s at 30 μL/min. Data was double-reference subtracted using both a surface without captured antibody and from injections of HBS-EP+ buffer. The equilibrium response was measured at 4 seconds before the end of association with a window of 5 seconds and fit using the Biacore T200 Evaluation Software 3.1 with the Steady State Affinity Model.

[29] = target: human 4-1BB on reporter cells (human, UniProt Q07011 24-255); experiment: cell-based or functional assay
Chain of human 4-1BB on reporter cells (Q07011 24-255): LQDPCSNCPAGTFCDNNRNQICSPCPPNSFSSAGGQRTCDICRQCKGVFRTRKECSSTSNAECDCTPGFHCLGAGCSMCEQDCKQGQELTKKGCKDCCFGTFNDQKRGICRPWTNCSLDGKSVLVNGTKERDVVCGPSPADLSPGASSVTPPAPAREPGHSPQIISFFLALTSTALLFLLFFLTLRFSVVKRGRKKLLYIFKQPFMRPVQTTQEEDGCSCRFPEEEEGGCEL

Kd (hEphA2-clv385-534-Fc): 12 nM | koff (hEphA2-clv385-534-Fc): 0.072 s⁻¹ | kon (hEphA2-clv385-534-Fc): 6.05e+06 M⁻¹ s⁻¹ | Kd (hEphA2-clv432-534-Fc): 9.6 nM | koff (hEphA2-clv432-534-Fc): 0.075 s⁻¹ | kon (hEphA2-clv432-534-Fc): 7.78e+06 M⁻¹ s⁻¹ | Kd (hEphA2-clv395-534-Fc): 12 nM | koff (hEphA2-clv395-534-Fc): 0.07 s⁻¹ | kon (hEphA2-clv395-534-Fc): 5.72e+06 M⁻¹ s⁻¹ | Kd [4]: 8.6 nM | koff [4]: 0.043 s⁻¹ | kon [4]: 5e+06 M⁻¹ s⁻¹ | Kd (hEphA2-clv435-534-Fc): 9.3 nM | koff (hEphA2-clv435-534-Fc): 0.078 s⁻¹ | kon (hEphA2-clv435-534-Fc): 8.42e+06 M⁻¹ s⁻¹ | Kd [5]: 8.6 nM | koff [5]: 0.085 s⁻¹ | kon [5]: 1e+07 M⁻¹ s⁻¹
B3: AB-010699 human Fab fragment (Fab, V domains shown)
VH: QVQLQQWGAGLLKPSETLSLTCAVYGGSFSGYYWSWIRQPPGKGLEWIGEINHRGSINYNNYNPSLKSRVTISVDTSKNQFSLKLSSVTAADTAVYYCAKPLRPHCINGVCYSGDAFDIWGQGTMVTVAS
VL: SYVLTQPPSVSVAPGQTARITCGGNNIGYKNVHWYQQKPGQAPVLVVYDDSDRPSGIPERFSGSNSGNTATLTISRVEAGDEADYYCQVWDHSSDHVVFGGGTKLTVL
notes: Human Fab format

Kd [27]: 19 nM | koff [27]: 0.075 s⁻¹ | kon [27]: 3.9e+06 M⁻¹ s⁻¹ | Kd [28]: 18.9 nM
B6: AB-010699 (mouse IgG2a format) (antibody, V domains shown)
VH: B3 VH
VL: B3 VL
notes: tested in mIgG2a format

EC50 (read off the curve), 4-1BB reporter activation with PC3 [29]: ~0.3 nM
B7: Urelumab (AB-009811) (antibody, V domains shown)
VH: QVQLQQWGAGLLKPSETLSLTCAVYGGSFSGYYWSWIRQSPEKGLEWIGEINHGGYVTYNPSLESRVTISVDTSKNQFSLKLSSVTAADTAVYYCARDYGPGNYDWYFDLWGRGTLVTVSS
VL: EIVLTQSPATLSLSPGERATLSCRASQSVSSYLAWYQQKPGQAPRLLIYDASNRATGIPARFSGSGSGTDFTLTISSLEPEDFAVYYCQQRSNWPPALTFGGGTKVEIK

More lines, now with the values behind:

B1: AB-010357 (antibody, mouse IgG2a, V domains shown)
VH: B3 VH with G31D, I107T
VL: B3 VL with Y29S, R60Q, H92S
ADCC - EC50 (nM), Trial 1, A549 [1]: 12.3 nM | ADCC - EC50 (nM), Trial 2, A549 [1]: 9.6 nM | ADCC EC50 (nM), parent, A549 [2]: 10.9 nM | ADCC EC50 [3]: 11.6 nM | ADCC Fold-improved (against AB-008873) [3]: 3 fold

B2: AB-010363 (antibody, V domains shown)
VH: B3 VH with I107T
VL: B3 VL with Y29S, H92S
ADCC - EC50 (nM), Trial 1, A549 [1]: 5.1 nM | ADCC - EC50 (nM), Trial 2, A549 [1]: 4.2 nM | ADCC EC50 (nM), parent, A549 [2]: 4.65 nM | ADCC EC50 [3]: 9.5 nM | ADCC Fold-improved (against AB-008873) [3]: 3.66 fold

B4: AB-010361 (antibody, mouse IgG2a, V domains shown)
VH: B3 VH with I107T
VL: B3 VL with Y29S, R60Q, H92S
ADCC - EC50 (nM), Trial 1, A549 [1]: 4 nM | ADCC - EC50 (nM), Trial 2, A549 [1]: 2.2 nM | ADCC EC50 (nM), parent, A549 [2]: 3.1 nM | ADCC EC50 [3]: 3.1 nM | ADCC Fold-improved (against AB-008873) [3]: 11.2 fold

B5: AB-009816 (antibody, mouse IgG2a, V domains shown)
VH: B3 VH with G31D, I51V, T76A, S86T, I107T
VL: B3 VL with Y29S, R60Q, H92S, V97L
notes: Made on a mouse IgG2a framework
IHC score (Human EphA2 [6]): 2 | IHC score (Human EphA2 [7]): 1 | IHC score (Human EphA2 [8]): 1 | IHC score (Human EphA2 [9]): 1 | IHC score (Human EphA2 [10]): 2 | IHC score (Human EphA2 [11]): 2 | IHC score (Human EphA2 [12]): 2 | IHC score (Human EphA2 [13]): 1 | IHC score (Human EphA2 [14]): 1 | IHC score (Human EphA2 [15]): 2 | IHC score (Human EphA2 [16]): 1 | IHC score (Human EphA2 [17]): 2 | IHC score (Human EphA2 [18]): 2 | IHC score (Human EphA2 [19]): 2 | IHC score (Human EphA2 [20]): 2 | IHC score (Human EphA2 [21]): 2 | IHC score (Human EphA2 [22]): 1 | IHC score (Human EphA2 [23]): 1 | IHC score (Human EphA2 [24]): 2 | IHC score (Human EphA2 [25]): 1 | IHC score (Human EphA2 [26]): 1
